Results from article PMC9735655, “Two Distinct Modes of DNA Binding by an MCM Helicase Enable DNA Translocation”.
Each block holds one molecule with its values, some of them ahead of it.

Columns and labels:
[1] = molecular target: MCM protein of Saccharolobus solfataricus with the C-terminal helix-turn-helix domain removed and a modified linker between the N-terminal domain and the AAA+ ATPase domain (Saccharolobus solfataricus) (UniProt Q9UXG1); assay: cryo-EM structure; SsoMCM at 1 mg/mL mixed 5:1 by volume with 1 mM oligonucleotide (T12, T16 or T20-CTATAG-T20), 5 mM ADP-BeF3, magnesium; plunge-frozen; two structural classes, also refined from merged particles
[2] = molecular target: T1, SsoMCM (C-terminal HTH removed, modified interdomain linker; pEE078.1) (Saccharolobus solfataricus, UniProt Q9UXG1 1-265+=GGSGGS+275-612, internal_change); assay: cryo-EM; Mg2+, ADP-BeF3; class 1 (six subunits on DNA, 2.48 A); Cryo-EM sample: protein 1 mg/mL mixed 5:1 (v/v) with 1 mM oligonucleotide, 5 mM fresh ADP-BeF3, magnesium present; buffer, salt, pH and temperature not stated in the material; conditions: protein: recombinant; tags: His6-SUMO removed with Ulp1; chain copies: 6; single strand
T1 sequence: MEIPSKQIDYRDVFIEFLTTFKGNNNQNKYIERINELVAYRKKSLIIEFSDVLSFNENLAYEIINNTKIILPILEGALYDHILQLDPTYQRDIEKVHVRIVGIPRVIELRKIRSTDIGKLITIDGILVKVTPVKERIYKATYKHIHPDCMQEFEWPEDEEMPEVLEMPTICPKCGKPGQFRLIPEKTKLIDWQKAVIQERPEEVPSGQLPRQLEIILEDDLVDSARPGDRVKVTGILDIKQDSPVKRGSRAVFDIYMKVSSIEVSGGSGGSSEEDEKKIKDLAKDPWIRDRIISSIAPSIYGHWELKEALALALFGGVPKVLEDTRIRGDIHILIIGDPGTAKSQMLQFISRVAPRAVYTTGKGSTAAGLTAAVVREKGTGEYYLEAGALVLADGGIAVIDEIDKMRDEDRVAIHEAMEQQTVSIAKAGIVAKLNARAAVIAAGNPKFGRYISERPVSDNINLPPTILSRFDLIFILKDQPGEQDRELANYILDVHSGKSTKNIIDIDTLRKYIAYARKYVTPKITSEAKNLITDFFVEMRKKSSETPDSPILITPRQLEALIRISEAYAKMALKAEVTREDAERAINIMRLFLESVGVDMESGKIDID

[3] = molecular target: T1, SsoMCM (C-terminal HTH removed, …); assay: cryo-EM; Mg2+, ADP-BeF3; class 1 (six subunits on DNA); Cryo-EM sample: protein 1 mg/mL mixed 5:1 (v/v) with 1 mM oligonucleotide, 5 mM fresh ADP-BeF3, magnesium present; buffer, salt, pH and temperature not stated in the material; conditions: protein: recombinant, tags: His6-SUMO removed with Ulp1, chain copies: 6

stoichiometry N [1]: 6
Molecule: MCM protein of Saccharolobus solfataricus with the C-terminal helix-turn-helix domain removed and a modified linker between the N-terminal domain and the AAA+ ATPase domain (from UniProt Q9UXG1 1-686) (enzyme)

B1: T16 (16-mer poly-dT) (ssDNA)
DNA: TTTTTTTTTTTTTTTT
binding result [2]: binds

B2: T12 (12-mer poly-dT) (ssDNA)
DNA: TTTTTTTTTTTT
binding result ([3]; single strand): binds

B3: T20-CTATAG-T20 (ssDNA)
DNA: TTTTTTTTTTTTTTTTTTTTCTATAGTTTTTTTTTTTTTTTTTTTT
binding result ([3]; central 6-nt palindrome, potential X-shape with 20-mer poly-dT arms): binds
